Where a chain is given by its changes, count along the chain named. In names and notes the source's numbering stands.

The target of the assay is T1, CD3 epsilon homodimer protein (UniProt P07766 23-126).
T1 construct: Construct of the homodimer is not described; also called CD3 (CD3 epsilon)
Description: SPR Biacore T200, CD3e homodimer on chip, antibody analyte.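 Further: CD3 epsilon homodimer amine-coupled on CM4 sensor chip, antibodies injected as analyte at 25 °C in HBS-EP+, ratio ≥0.8 taken as binding retained versus unaltered parent antibody.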

T1 sequence (P07766 23-126): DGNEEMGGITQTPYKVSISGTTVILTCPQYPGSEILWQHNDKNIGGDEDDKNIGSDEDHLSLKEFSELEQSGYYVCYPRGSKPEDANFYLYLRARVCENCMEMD

B1: GLS3000 G89W one-arm antibody (antibody, human IgG1, kappa, L234A L235A, N297A, name in Kabat numbering)
light: DIVMTQSPLSLPVTPGEPASISCRSSQSLVHSNRNTYLHWYQQKPGQAPRLLIYKVSNRFSGVPDRFSGSGSGTDFTLKISRVEAEDVGVYYCWQGTQVPYTFGQGTKLEIKRTVAAPSVFIFPPSDEQLKSGTASVVCLLNNFYPREAKVQWKVDNALQSGNSQESVTEQDSKDSTYSLSSTLTLSKADYEKHKVYACEVTHQGLSSPVTKSFNRGEC
heavy: QVQLVESGGGVVQPGRSLRLSCAASGFTFSNAWMHWVRQAPGKGLEWVAQIKAKSNNYATYYAESVKGRFTISRDDSKNSLYLQMNSLKTEDTAVYYCRYVHYGAYYGVDAWGQGTTVTVSSASTKGPSVFPLAPSSKSTSGGTAALGCLVKDYFPEPVTVSWNSGALTSGVHTFPAVLQSSGLYSLSSVVTVPSSSLGTQTYICNVNHKPSNTKVDKKVEPKSCDKTHTCPPCPAPEAAGGPSVFLFPPKPKDTLMISRTPEVTCVVVDVSHEDPEVKFNWYVDGVEVHNAKTKPREEQYASTYRVVSVLTVLHQDWLNGKEYKCKVSNKALPAPIEKTISKAKGQPREPQVYTLPPSRCELTKNQVSLSCAVKGFYPSDIAVEWESNGQPENNYKTTPPVLDSDGSFFLVSKLTVDKSRWQQGNVFSCSVMHEALHNHYTQKSLSLSPDYKDDDDK
chain: EPKSSDKTHTCPPCPAPELLGGPSVFLFPPKPKDTLMISRTPEVTCVVVDVSHEDPEVKFNWYVDGVEVHNAKTKPREEQYNSTYRVVSVLTVLHQDWLNGKEYKCKVSNKALPAPIEKTISKAKGQPREPQVCTLPPSRDELTKNQVSLWCLVKGFYPSDIAVEWESNGQPENNYKTTPPVLDSDGSFFLYSKLTVDKSRWQQGNVFSCSVMHEALHNRYTQKSLSLSP
Turning to B1, the “ratio of amounts bound (altered form/GLS3000)” value was found to be 0.5.

B2: GLS3000 K50Q one-arm antibody (antibody, human IgG1, kappa, L234A L235A, N297A, name in Kabat numbering)
light: B1 light with K55Q, W94G
heavy: B1 heavy
chain: B1 chain
Consider B2, for which the “ratio of amounts bound (altered form/GLS3000)” value amounted to 0.18.

B3: GLS3000 H34G one-arm antibody (antibody, human IgG1, kappa, L234A L235A, N297A, name in Kabat numbering)
light: B1 light with H39G, W94G
heavy: B1 heavy
chain: B1 chain
Regarding B3, the “ratio of amounts bound (altered form/GLS3000)” value was determined as 1.02.

B4: GLS3000 G91S one-arm antibody (antibody, human IgG1, kappa, L234A L235A, N297A, name in Kabat numbering)
light: B1 light with W94G, G96S
heavy: B1 heavy
chain: B1 chain
Consider B4, for which the “ratio of amounts bound (altered form/GLS3000)” value was found to be 0.26.

B5: GLS3000 H34M one-arm antibody (antibody, human IgG1, kappa, L234A L235A, N297A, name in Kabat numbering)
light: B1 light with H39M, W94G
heavy: B1 heavy
chain: B1 chain
On to B5, for which the “ratio of amounts bound (altered form/GLS3000)” value stood at 0.35.

B6: GLS3000 H34N one-arm antibody (antibody, human IgG1, kappa, L234A L235A, N297A, name in Kabat numbering)
light: B1 light with H39N, W94G
heavy: B1 heavy
chain: B1 chain
Take B6: the “ratio of amounts bound (altered form/GLS3000)” value was 0.65.

B7: GLS3000 H34Y one-arm antibody (antibody, human IgG1, kappa, L234A L235A, N297A, name in Kabat numbering)
light: B1 light with H39Y, W94G
heavy: B1 heavy
chain: B1 chain
For B7, the “ratio of amounts bound (altered form/GLS3000)” value was 0.59.

B8: GLS3000 H34I one-arm antibody (antibody, human IgG1, kappa, L234A L235A, N297A, name in Kabat numbering)
light: B1 light with H39I, W94G
heavy: B1 heavy
chain: B1 chain
Regarding B8, the “ratio of amounts bound (altered form/GLS3000)” value came to 0.65.

B9: GLS3000 G91D one-arm antibody (antibody, human IgG1, kappa, L234A L235A, N297A, name in Kabat numbering)
light: B1 light with W94G, G96D
heavy: B1 heavy
chain: B1 chain
Regarding B9, the “ratio of amounts bound (altered form/GLS3000)” value amounted to 0.16.

B10: GLS3000 K50E one-arm antibody (antibody, human IgG1, kappa, L234A L235A, N297A, name in Kabat numbering)
light: B1 light with K55E, W94G
heavy: B1 heavy
chain: B1 chain
For B10, the “ratio of amounts bound (altered form/GLS3000)” value was 0.24.

B11: GLS3000 H34S one-arm antibody (antibody, human IgG1, kappa, L234A L235A, N297A, name in Kabat numbering)
light: B1 light with H39S, W94G
heavy: B1 heavy
chain: B1 chain
As to B11, the “ratio of amounts bound (altered form/GLS3000)” value was 0.78.

B12: GLS3000 K50T one-arm antibody (antibody, human IgG1, kappa, L234A L235A, N297A, name in Kabat numbering)
light: B1 light with K55T, W94G
heavy: B1 heavy
chain: B1 chain
Consider B12, for which the “ratio of amounts bound (altered form/GLS3000)” value amounted to 0.19.

B13: GLS3000 H34R one-arm antibody (antibody, human IgG1, kappa, L234A L235A, N297A, name in Kabat numbering)
light: B1 light with H39R, W94G
heavy: B1 heavy
chain: B1 chain
B13: the “ratio of amounts bound (altered form/GLS3000)” value worked out at 0.2.

B14: GLS3000 G91E one-arm antibody (antibody, human IgG1, kappa, L234A L235A, N297A, name in Kabat numbering)
light: B1 light with W94G, G96E
heavy: B1 heavy
chain: B1 chain
B14: the “ratio of amounts bound (altered form/GLS3000)” value worked out at 0.16.

B15: GLS3000 H34L one-arm antibody (antibody, human IgG1, kappa, L234A L235A, N297A, name in Kabat numbering)
light: B1 light with H39L, W94G
heavy: B1 heavy
chain: B1 chain
B15: the “ratio of amounts bound (altered form/GLS3000)” value was found to be 0.59.

B16: GLS3000 H34K one-arm antibody (antibody, human IgG1, kappa, L234A L235A, N297A, name in Kabat numbering)
light: B1 light with H39K, W94G
heavy: B1 heavy
chain: B1 chain
Regarding B16, the “ratio of amounts bound (altered form/GLS3000)” value came out at 2.17.

B17: GLS3000 H34T one-arm antibody (antibody, human IgG1, kappa, L234A L235A, N297A, name in Kabat numbering)
light: B1 light with H39T, W94G
heavy: B1 heavy
chain: B1 chain
As to B17, the “ratio of amounts bound (altered form/GLS3000)” value amounted to 0.89.

B18: GLS3000 G91A one-arm antibody (antibody, human IgG1, kappa, L234A L235A, N297A, name in Kabat numbering)
light: B1 light with W94G, G96A
heavy: B1 heavy
chain: B1 chain
On to B18, for which the “ratio of amounts bound (altered form/GLS3000)” value is 0.27.

B19: GLS3000 K50P one-arm antibody (antibody, human IgG1, kappa, L234A L235A, N297A, name in Kabat numbering)
light: B1 light with K55P, W94G
heavy: B1 heavy
chain: B1 chain
B19: the “ratio of amounts bound (altered form/GLS3000)” value came out at 0.3.

B20: GLS3000 H34W one-arm antibody (antibody, human IgG1, kappa, L234A L235A, N297A, name in Kabat numbering)
light: B1 light with H39W, W94G
heavy: B1 heavy
chain: B1 chain
Consider B20, for which the “ratio of amounts bound (altered form/GLS3000)” value was 0.24.

B21: GLS3000 H34E one-arm antibody (antibody, human IgG1, kappa, L234A L235A, N297A, name in Kabat numbering)
light: B1 light with H39E, W94G
heavy: B1 heavy
chain: B1 chain
For B21, the “ratio of amounts bound (altered form/GLS3000)” value came out at 0.23.

B22: GLS3000 H34Q one-arm antibody (antibody, human IgG1, kappa, L234A L235A, N297A, name in Kabat numbering)
light: B1 light with H39Q, W94G
heavy: B1 heavy
chain: B1 chain
Take B22: the “ratio of amounts bound (altered form/GLS3000)” value came out at 0.25.

B23: GLS3000 K50R one-arm antibody (antibody, human IgG1, kappa, L234A L235A, N297A, name in Kabat numbering)
light: B1 light with K55R, W94G
heavy: B1 heavy
chain: B1 chain
Turning to B23, the “ratio of amounts bound (altered form/GLS3000)” value is 0.5.

B24: GLS3000 K50L one-arm antibody (antibody, human IgG1, kappa, L234A L235A, N297A, name in Kabat numbering)
light: B1 light with K55L, W94G
heavy: B1 heavy
chain: B1 chain
In the case of B24, the “ratio of amounts bound (altered form/GLS3000)” value was 0.24.

B25: GLS3000 K50S one-arm antibody (antibody, human IgG1, kappa, L234A L235A, N297A, name in Kabat numbering)
light: B1 light with K55S, W94G
heavy: B1 heavy
chain: B1 chain
Regarding B25, the “ratio of amounts bound (altered form/GLS3000)” value was 0.23.

B26: GLS3000 H34F one-arm antibody (antibody, human IgG1, kappa, L234A L235A, N297A, name in Kabat numbering)
light: B1 light with H39F, W94G
heavy: B1 heavy
chain: B1 chain
With B26, the “ratio of amounts bound (altered form/GLS3000)” value was 0.27.

B27: GLS3000 G91T one-arm antibody (antibody, human IgG1, kappa, L234A L235A, N297A, name in Kabat numbering)
light: B1 light with W94G, G96T
heavy: B1 heavy
chain: B1 chain
On to B27, for which the “ratio of amounts bound (altered form/GLS3000)” value amounted to 0.26.

B28: GLS3000 K50G one-arm antibody (antibody, human IgG1, kappa, L234A L235A, N297A, name in Kabat numbering)
light: B1 light with K55G, W94G
heavy: B1 heavy
chain: B1 chain
In the case of B28, the “ratio of amounts bound (altered form/GLS3000)” value was 0.16.

B29: GLS3000 K50Y one-arm antibody (antibody, human IgG1, kappa, L234A L235A, N297A, name in Kabat numbering)
light: B1 light with K55Y, W94G
heavy: B1 heavy
chain: B1 chain
On to B29, for which the “ratio of amounts bound (altered form/GLS3000)” value worked out at 0.24.

B30: GLS3000 H34V one-arm antibody (antibody, human IgG1, kappa, L234A L235A, N297A, name in Kabat numbering)
light: B1 light with H39V, W94G
heavy: B1 heavy
chain: B1 chain
For B30, the “ratio of amounts bound (altered form/GLS3000)” value was found to be 0.85.

B31: GLS3000 G91P one-arm antibody (antibody, human IgG1, kappa, L234A L235A, N297A, name in Kabat numbering)
light: B1 light with W94G, G96P
heavy: B1 heavy
chain: B1 chain
With B31, the “ratio of amounts bound (altered form/GLS3000)” value was 0.27.

B32: GLS3000 H34P one-arm antibody (antibody, human IgG1, kappa, L234A L235A, N297A, name in Kabat numbering)
light: B1 light with H39P, W94G
heavy: B1 heavy
chain: B1 chain
As to B32, the “ratio of amounts bound (altered form/GLS3000)” value turned out to be 0.34.

The values are drawn from patent US20240270846A1 (published 2024).
